From article PMC4797282 (Nucleic Acids Research, 2016) come the findings set out here.

The series concerns the molecule itself. Description: SEC-MALS. For orientation: In gel filtration, larger molecules generally elute earlier.

B1: CpMgm101-NoTag (untagged full-length mature Candida parapsilosis Mgm101) (natural protein, UniProt G8B839 30-266, looked up)
chain: VPKTASAKTTSKLAPSITTEDEVAEQDPSLQEPQSATSTASFAFHDAPPETRSVLNSSTNNNIDWSDSYHGLGSQPFSREIADILLAPIKDQDIEIKPDGLLYLPEIKYRRILNKAFGPGGWGLVPRTESLITKSQISREYGLICHGRLISIARGEQDYFGGEEKVTTALEGCKSNALMRCCKDLGIASELWDPGFIRKWKAKYCEEVFVEHVVNKKKKKLWKLKSNKKIEYPYKQL
On to B1, for which the stoichiometry N (in general, a count of units in the complex or per binding partner) was found to be 3.
